# Residue numbers refer to the chain shown, from its start. Numbered stars: 1 amine (or outer) side, 2 acyl side, 3 side chain; on linkers, the order of the positions; unused ones are H or OH. Bridge positions count the residues as written; N and C are the ends. Square brackets hold non-standard residues; d marks the D form. * marks the point of attachment. C20 diacid = O=C(O)CCCCCCCCCCCCCCCCCCC(=O)*; γGlu = O=C(O)[C@H](CCC(=O)[*:2])N[*:1]; 4Pal = N[C@@H](Cc1ccncc1)C(=O)O
# B1: Example 26 (peptide)
# peptide: {C20 diacid}-[γGlu]EKEKEKGS[4Pal]RRSSCFGGRIDRIGHQSGLGCPSFRHRITAREDKQGEA-NH2
# modifications: disulfide 15-31
# B2: Example 22 (peptide)
# peptide: {C20 diacid}-[γGlu]EKEKEKGS[4Pal]RRSSCFGGRIDRIGAQSGLGCPSFRH-NH2
# modifications: disulfide 15-31
# SMILES: CC[C@H](C)[C@@H]1NC(=O)[C@H](CCCNC(=N)N)NC(=O)[C@H](CC(=O)O)NC(=O)[C@H]([C@@H](C)CC)NC(=O)[C@H](CCCNC(=N)N)NC(=O)CNC(=O)CNC(=O)[C@H](Cc2ccccc2)NC(=O)[C@@H](NC(=O)[C@H](CO)NC(=O)[C@H](CO)NC(=O)[C@H](CCCNC(=N)N)NC(=O)[C@H](CCCNC(=N)N)NC(=O)[C@H](Cc2ccncc2)NC(=O)[C@H](CO)NC(=O)CNC(=O)[C@H](CCCCN)NC(=O)[C@H](CCC(=O)O)NC(=O)[C@H](CCCCN)NC(=O)[C@H](CCC(=O)O)NC(=O)[C@H](CCCCN)NC(=O)[C@H](CCC(=O)O)NC(=O)CC[C@H](NC(=O)CCCCCCCCCCCCCCCCCCC(=O)O)C(=O)O)CSSC[C@@H](C(=O)N2CCC[C@H]2C(=O)N[C@@H](CO)C(=O)N[C@@H](Cc2ccccc2)C(=O)N[C@@H](CCCNC(=N)N)C(=O)N[C@@H](Cc2c[nH]cn2)C(N)=O)NC(=O)CNC(=O)[C@H](CC(C)C)NC(=O)CNC(=O)[C@H](CO)NC(=O)[C@H](CCC(N)=O)NC(=O)[C@H](C)NC(=O)CNC1=O
# B3: Example 5 (peptide)
# peptide: XEKEKEKGEKPRSSCFGKRIDRIGHYSGLGCPSFRHGSPSSGAPPPS
# modifications: HOOC-(CH2)18-CO-(γGlu)-EKEKEKGEKPRSS[CFGKRIDRIGHYSGLGC]PSFRHGSPSSGAPPPS-NH2; thioacetal linkage between the bracketed Cys
# B4: Example 37 (peptide)
# peptide: XEKEKEKGSXRRSSCFGGRIDRIGHQSGLGCPSFRHGPSSGAPPPS
# modifications: HOOC-(CH2)18-CO-(γGlu)-EKEKEKGS-4Pal-RRSS[CFGGRIDRIGHQSGLGC]PSFRH-GPSSGAPPPS-NH2; disulfide linkage between the bracketed Cys
# B5: Example 25 (peptide)
# peptide: {C20 diacid}-[γGlu]EKEKEKGS[4Pal]RRSSCFGGRIDRIGHQSGLGCPSFRHRITAREDKQGYA-NH2
# modifications: disulfide 15-31
# B6: Example 30 (peptide)
# peptide: XEKEKEKGSXKRSSCFGGKIDRIGHQSGLGCPSFRHGGPSSGAPPPS
# modifications: HOOC-(CH2)18-CO-(γGlu)-EKEKEKGS-4Pal-KRSS[CFGGKIDRIGHQSGLGC]PSFRHGGPSSGAPPPS-NH2; disulfide linkage between the bracketed Cys
# B7: Example 57 (peptide)
# peptide: B3 peptide with K18G, S38G
# modifications: HOOC-(CH2)18-CO-(γGlu)-EKEKEKGEKPRSS[CFGGRIDRIGHYSGLGC]PSFRHGGPSSGAPPPS-NH2; thioacetal linkage between the bracketed Cys
# B8: Example 55 (peptide)
# peptide: B3 peptide with K18G, S38G
# modifications: HOOC-(CH2)18-CO-(γGlu)-EKEKEKGEKPRSS[CFGGRIDRIGHYSGLGC]PSFRHGGPSSGAPPPS-NH2; disulfide linkage between the bracketed Cys
# B9: Example 38 (peptide)
# peptide: B6 peptide with K11R, K19R, Q26Y
# modifications: HOOC-(CH2)18-CO-(γGlu)-EKEKEKGS-4Pal-RRSS[CFGGRIDRIGHYSGLGC]PSFRHGGPSSGAPPPS-NH2; disulfide linkage between the bracketed Cys
# B10: Example 31 (peptide)
# peptide: B6 peptide with H25X
# modifications: HOOC-(CH2)18-CO-(γGlu)-EKEKEKGS-4Pal-KRSS[CFGGKIDRIG-Dap-QSGLGC]PSFRHGGPSSGAPPPS-NH2; disulfide linkage between the bracketed Cys
# B11: Example 29 (peptide)
# peptide: {C20 diacid}-[γGlu]EKEKEKGS[4Pal]RRSSCFGGRIGRIGHQSGLGCPSFRHGGPSSGAPPPS-NH2
# modifications: disulfide 15-31
# B12: Example 24 (peptide)
# peptide: {C20 diacid}-[γGlu]EKEKEKGS[4Pal]RRSSCFGGRIDRIGHQSGLGCPSFR[4Pal]-NH2
# modifications: disulfide 15-31
# SMILES: CC[C@H](C)[C@@H]1NC(=O)[C@H](CCCNC(=N)N)NC(=O)[C@H](CC(=O)O)NC(=O)[C@H]([C@@H](C)CC)NC(=O)[C@H](CCCNC(=N)N)NC(=O)CNC(=O)CNC(=O)[C@H](Cc2ccccc2)NC(=O)[C@@H](NC(=O)[C@H](CO)NC(=O)[C@H](CO)NC(=O)[C@H](CCCNC(=N)N)NC(=O)[C@H](CCCNC(=N)N)NC(=O)[C@H](Cc2ccncc2)NC(=O)[C@H](CO)NC(=O)CNC(=O)[C@H](CCCCN)NC(=O)[C@H](CCC(=O)O)NC(=O)[C@H](CCCCN)NC(=O)[C@H](CCC(=O)O)NC(=O)[C@H](CCCCN)NC(=O)[C@H](CCC(=O)O)NC(=O)CC[C@H](NC(=O)CCCCCCCCCCCCCCCCCCC(=O)O)C(=O)O)CSSC[C@@H](C(=O)N2CCC[C@H]2C(=O)N[C@@H](CO)C(=O)N[C@@H](Cc2ccccc2)C(=O)N[C@@H](CCCNC(=N)N)C(=O)N[C@@H](Cc2ccncc2)C(N)=O)NC(=O)CNC(=O)[C@H](CC(C)C)NC(=O)CNC(=O)[C@H](CO)NC(=O)[C@H](CCC(N)=O)NC(=O)[C@H](Cc2c[nH]cn2)NC(=O)CNC1=O
# B13: Example 47 (peptide)
# peptide: XEKEKEKGRSSCFGGKIDRIGHYSGLGCPSFRHKGPSSGAPPPS
# modifications: HOOC-(CH2)18-CO-(γGlu)-EKEKEKGRSS[CFGGKIDRIGHYSGLGC]PSFRHKGPSSGAPPPS-NH2; disulfide linkage between the bracketed Cys
# B14: Example 97 (peptide)
# peptide: SXRRSSCFGGRIDRIGHYSGLGCPSFRHGGPPSXKPPPK
# modifications: HOOC-(CH2)18-CO-(γGlu)-EKEKEKG-(AEEA)6-S-4Pal-RRSS[CFGGRIDRIGHYSGLGC]PSFRHGGPPS-Aib-KPPPK-NH2; thioacetal linkage between the bracketed Cys
# B15: Example 77 (peptide)
# peptide: EKXRSSCFGGRIDRIGHYSGLGCPSFRHGGKSSGAPPPS
# modifications: HOOC-(CH2)18-CO-(γGlu)-EKEKEKG-PEG12-EK-βAla-RSS[CFGGRIDRIGHYSGLGC]PSFRHGGKSSGAPPPS-NH2; thioacetal linkage between the bracketed Cys
# B16: Example 78 (peptide)
# peptide: B15 peptide
# modifications: HOOC-(CH2)18-CO-(γGlu)-EKEKEKG-PEG24-EK-βAla-RSS[CFGGRIDRIGHYSGLGC]PSFRHGGKSSGAPPPS-NH2; thioacetal linkage between the bracketed Cys
# B17: Example 85 (peptide)
# peptide: B3 peptide with P11X, Y26Q, S38G, P39K
# modifications: HOOC-(CH2)18-CO-(γGlu)-EKEKEKGEK-βAla-RSS[CFGKRIDRIGHQSGLGC]PSFRHGGKSSGAPPPS-NH2; thioacetal linkage between the bracketed Cys
# B18: Example 50 (peptide)
# peptide: XEKEKEKGEKGRSSCFGGRIDRIGHYSGLGCPSFRHKGGPSSGAPPPS
# modifications: HOOC-(CH2)18-CO-(γGlu)-EKEKEKGEKGRSS[CFGGRIDRIGHYSGLGC]PSFRHKGGPSSGAPPPS-NH2; disulfide linkage between the bracketed Cys
# B19: Example 49 (peptide)
# peptide: B3 peptide with P11E, K18G, S38G
# modifications: HOOC-(CH2)18-CO-(γGlu)-EKEKEKGEKERSS[CFGGRIDRIGHYSGLGC]PSFRHGGPSSGAPPPS-NH2; disulfide linkage between the bracketed Cys
# B20: Example 45 (peptide)
# peptide: B3 peptide with P11G, K18G, R19K, S38G
# modifications: HOOC-(CH2)18-CO-(γGlu)-EKEKEKGEKGRSS[CFGGKIDRIGHYSGLGC]PSFRHGGPSSGAPPPS-NH2; disulfide linkage between the bracketed Cys
# Target: T1, rat NPRA (rat, UniProt P18910 29-1057)
# T1 sequence (looked up): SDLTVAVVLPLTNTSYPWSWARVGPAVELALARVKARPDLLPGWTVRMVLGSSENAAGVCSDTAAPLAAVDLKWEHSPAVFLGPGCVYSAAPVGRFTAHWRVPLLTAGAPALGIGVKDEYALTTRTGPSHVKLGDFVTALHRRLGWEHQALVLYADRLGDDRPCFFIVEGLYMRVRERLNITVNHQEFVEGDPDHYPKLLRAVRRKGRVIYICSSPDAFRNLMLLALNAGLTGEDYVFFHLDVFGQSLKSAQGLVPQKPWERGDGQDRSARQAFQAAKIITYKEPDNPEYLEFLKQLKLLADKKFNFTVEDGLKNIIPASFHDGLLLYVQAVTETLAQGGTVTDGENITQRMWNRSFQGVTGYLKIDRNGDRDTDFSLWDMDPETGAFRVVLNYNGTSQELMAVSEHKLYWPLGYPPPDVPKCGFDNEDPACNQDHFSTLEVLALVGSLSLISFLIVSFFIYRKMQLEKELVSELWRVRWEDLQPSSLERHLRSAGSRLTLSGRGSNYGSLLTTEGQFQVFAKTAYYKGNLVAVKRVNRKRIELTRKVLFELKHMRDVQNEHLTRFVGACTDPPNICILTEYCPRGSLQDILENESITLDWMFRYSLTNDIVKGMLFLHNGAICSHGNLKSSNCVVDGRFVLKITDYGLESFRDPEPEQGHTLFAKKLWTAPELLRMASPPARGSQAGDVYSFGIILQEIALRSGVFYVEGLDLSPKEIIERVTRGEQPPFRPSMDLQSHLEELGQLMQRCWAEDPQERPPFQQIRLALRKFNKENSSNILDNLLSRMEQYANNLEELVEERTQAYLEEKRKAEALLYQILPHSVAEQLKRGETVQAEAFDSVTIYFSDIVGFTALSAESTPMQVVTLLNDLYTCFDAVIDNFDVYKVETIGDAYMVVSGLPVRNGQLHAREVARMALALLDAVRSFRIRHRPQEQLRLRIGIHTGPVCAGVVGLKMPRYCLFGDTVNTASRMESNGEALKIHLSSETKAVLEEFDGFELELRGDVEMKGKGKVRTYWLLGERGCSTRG
# Assay: cell-based or functional assay
Binder,"cGMP Assay (EC50, pM) w/BSA","cGMP Assay (EC50, pM) w/Casein"
B1,119000 pM,803 pM
B2,192000 pM,1690 pM
B3,276000 pM,1130 pM
B4,84600 pM,
B5,57300 pM,654 pM
B6,,1130 pM
B7,,9500 pM
B8,,493 pM
B9,40500 pM,
B10,,12200 pM
B11,1.91e+06 pM,16800 pM
B12,66100 pM,703 pM

# Target: T2, human NPRA (human, UniProt P16066 33-1061)
# T2 sequence (looked up): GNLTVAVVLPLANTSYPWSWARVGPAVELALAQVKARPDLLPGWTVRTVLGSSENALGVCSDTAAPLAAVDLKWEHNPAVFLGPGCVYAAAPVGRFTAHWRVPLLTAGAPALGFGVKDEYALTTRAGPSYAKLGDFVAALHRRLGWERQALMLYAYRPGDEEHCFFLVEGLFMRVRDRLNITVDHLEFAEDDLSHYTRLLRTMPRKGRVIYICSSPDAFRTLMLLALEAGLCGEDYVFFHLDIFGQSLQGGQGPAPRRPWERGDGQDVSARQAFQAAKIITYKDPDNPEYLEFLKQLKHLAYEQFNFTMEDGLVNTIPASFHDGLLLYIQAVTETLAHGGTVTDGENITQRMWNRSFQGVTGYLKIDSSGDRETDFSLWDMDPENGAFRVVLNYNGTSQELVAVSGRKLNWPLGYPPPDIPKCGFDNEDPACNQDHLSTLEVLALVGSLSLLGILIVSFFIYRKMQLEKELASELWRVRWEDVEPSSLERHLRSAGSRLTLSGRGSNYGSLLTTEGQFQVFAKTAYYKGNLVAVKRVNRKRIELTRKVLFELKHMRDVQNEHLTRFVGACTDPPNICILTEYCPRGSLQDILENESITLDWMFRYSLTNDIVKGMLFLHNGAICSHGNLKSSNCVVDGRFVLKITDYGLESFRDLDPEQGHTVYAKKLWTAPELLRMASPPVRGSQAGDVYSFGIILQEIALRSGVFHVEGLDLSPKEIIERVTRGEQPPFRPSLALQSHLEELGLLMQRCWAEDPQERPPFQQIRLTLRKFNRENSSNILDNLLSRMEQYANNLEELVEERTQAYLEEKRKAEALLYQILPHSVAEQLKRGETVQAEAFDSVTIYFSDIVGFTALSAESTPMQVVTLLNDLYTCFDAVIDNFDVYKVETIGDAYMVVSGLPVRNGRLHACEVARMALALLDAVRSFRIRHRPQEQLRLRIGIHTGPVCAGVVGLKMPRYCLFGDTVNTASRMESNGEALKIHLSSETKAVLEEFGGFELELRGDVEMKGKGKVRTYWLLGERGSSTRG
# Assay: cell-based or functional assay
Binder,"cGMP Assay (EC50, pM) w/Casein","cGMP Assay (EC50, pM) w/BSA"
B13,299 pM,
B1,682 pM,17800 pM
B14,720 pM,
B2,840 pM,25100 pM
B15,1270 pM,
B16,,19700 pM
B17,361 pM,
B5,436 pM,12000 pM
B18,614 pM,
B19,299 pM,
B20,,25200 pM
B11,482 pM,32200 pM
B12,560 pM,21000 pM

# Reference: patent US20240174727A1, “LONG-ACTING NATRIURETIC PEPTIDES AND USES THEREOF” (Eli Lilly and Company, priority 2022, published 2024)
